Reference: the supplement of paper PMC9116672
± gives the standard deviation of the averaged measurements or the uncertainty stated by the source.

Tests used:
[1] = duplex formation entropy ΔS (Van't Hoff fit of HRM Tm); higher = smaller entropy loss on duplex formation; conditions: temperature for dG: 50 °C, NaCl: 500 mM (unadjusted)
Protocol: (§1)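 Duplex of the listed DNA strand with its complement, in 1x NNE buffer (500 mM NaCl, pH 7.0) with 1x EvaGreen. ΔH and ΔS come from a Van't Hoff linear fit of 1/Tm against ln(CT/4) over 1-20 uM, using HRM Tm values.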

[2] = duplex formation enthalpy ΔH (Van't Hoff fit of HRM Tm); higher = less exothermic duplex formation; conditions: temperature for dG: 50 °C, NaCl: 500 mM (unadjusted)
Protocol: as §1

[3] = duplex formation free energy ΔG50 (Van't Hoff fit of HRM Tm); higher = less stable duplex; conditions: temperature for dG: 50 °C, NaCl: 500 mM (unadjusted)
Protocol: as §1

[4] = duplex melting temperature (HRM, EvaGreen); higher = more stable duplex
Protocol: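 Listed DNA strand annealed 1:1 with its complementary strand (95 °C 5 min, 0.1 °C/s to 20 °C). Melted in 1x NNE buffer (500 mM NaCl, 10 mM Na2HPO4, 1 mM EDTA, pH 7.0) with 1x EvaGreen on a LightCycler96 (37 to 97 °C, 0.1 °C/s). Tm is the peak of -dF/dT at the stated total duplex concentration; 4 replicates are averaged. PS oligos are non-stereospecific (Rp/Sp mixtures).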

[5] = backbone: PO-PO (both strands phosphodiester DNA)
[6] = backbone: PS-PO (listed strand fully phosphorothioate, complement phosphodiester)
[7] = backbone: PS-PS (both strands fully phosphorothioate)
[8] = duplex concentration 1 µM, backbone: PS-PO (listed strand fully phosphorothioate, complement phosphodiester)
[9] = duplex concentration 1 µM, backbone: PS-PS (both strands fully phosphorothioate)
[10] = duplex concentration 2.5 µM, backbone: PO-PO (both strands phosphodiester DNA)
[11] = duplex concentration 2.5 µM, backbone: PS-PO (listed strand fully phosphorothioate, complement phosphodiester)
[12] = duplex concentration 2.5 µM, backbone: PS-PS (both strands fully phosphorothioate)
[13] = duplex concentration 5 µM, backbone: PO-PO (both strands phosphodiester DNA)
[14] = duplex concentration 5 µM, backbone: PS-PO (listed strand fully phosphorothioate, complement phosphodiester)
[15] = duplex concentration 5 µM, backbone: PS-PS (both strands fully phosphorothioate)
[16] = duplex concentration 7.5 µM, backbone: PO-PO (both strands phosphodiester DNA)
[17] = duplex concentration 7.5 µM, backbone: PS-PO (listed strand fully phosphorothioate, complement phosphodiester)
[18] = duplex concentration 7.5 µM, backbone: PS-PS (both strands fully phosphorothioate)
[19] = duplex concentration 10 µM, backbone: PO-PO (both strands phosphodiester DNA)
[20] = duplex concentration 10 µM, backbone: PS-PO (listed strand fully phosphorothioate, complement phosphodiester)
[21] = duplex concentration 10 µM, backbone: PS-PS (both strands fully phosphorothioate)
[22] = duplex concentration 15 µM, backbone: PO-PO (both strands phosphodiester DNA)
[23] = duplex concentration 15 µM, backbone: PS-PO (listed strand fully phosphorothioate, complement phosphodiester)
[24] = duplex concentration 15 µM, backbone: PS-PS (both strands fully phosphorothioate)
[25] = duplex concentration 20 µM, backbone: PO-PO (both strands phosphodiester DNA)
[26] = duplex concentration 20 µM, backbone: PS-PO (listed strand fully phosphorothioate, complement phosphodiester)
[27] = duplex concentration 20 µM, backbone: PS-PS (both strands fully phosphorothioate)
[28] = duplex concentration 1 µM, backbone: PO-PO (both strands phosphodiester DNA)

Sequence | duplex formation entropy ΔS [1, 5] [cal/mol/K] | duplex formation entropy ΔS [1, 6] [cal/mol/K] | duplex formation entropy ΔS [1, 7] [cal/mol/K] | duplex formation enthalpy ΔH [2, 5] [kcal/mol] | duplex formation enthalpy ΔH [2, 6] [kcal/mol] | duplex formation enthalpy ΔH [2, 7] [kcal/mol] | duplex formation free energy ΔG50 [3, 5] [kcal/mol] | duplex formation free energy ΔG50 [3, 6] [kcal/mol] | duplex formation free energy ΔG50 [3, 7] [kcal/mol] | duplex melting temperature [4, 8] [°C] | duplex melting temperature [4, 9] [°C] | duplex melting temperature [4, 10] [°C] | duplex melting temperature [4, 11] [°C] | duplex melting temperature [4, 12] [°C] | duplex melting temperature [4, 13] [°C] | duplex melting temperature [4, 14] [°C] | duplex melting temperature [4, 15] [°C] | duplex melting temperature [4, 16] [°C] | duplex melting temperature [4, 17] [°C] | duplex melting temperature [4, 18] [°C] | duplex melting temperature [4, 19] [°C] | duplex melting temperature [4, 20] [°C] | duplex melting temperature [4, 21] [°C] | duplex melting temperature [4, 22] [°C] | duplex melting temperature [4, 23] [°C] | duplex melting temperature [4, 24] [°C] | duplex melting temperature [4, 25] [°C] | duplex melting temperature [4, 26] [°C] | duplex melting temperature [4, 27] [°C] | duplex melting temperature [4, 28] [°C]
CCCAGGCCTCGGATTTA | -206 ± 6.1 | -191 ± 3.5 | -205 ± 6.3 | -80.8 ± 2.1 | -74.2 ± 1.2 | -77.5 ± 2.1 | -14.1 ± 0.15 | -12.37 ± 0.061 | -11.41 ± 0.078 | 61.72 ± 0.53 | 56.81 ± 0.12 | 71.02 ± 0.086 | 64.52 ± 0.19 | 59.77 ± 0.087 | 73.09 ± 0.13 | 66.7 ± 0.3 | 61.69 ± 0.093 | 74.25 ± 0.19 | 67.99 ± 0.22 | 62.78 ± 0.14 | 75.215 ± 0.05 | 68.759 ± 0.049 | 63.54 ± 0.15 | 76.343 ± 0.055 | 70.047 ± 0.069 | 64.73 ± 0.092 | 77.12 ± 0.096 | 71.04 ± 0.25 | 65.39 ± 0.35 | 
CTCAGAGTAGAGCCGA | -179 ± 6.5 | -183 ± 3.4 | -182 ± 8.6 | -70.2 ± 2.2 | -70.4 ± 1.1 | -68.5 ± 2.8 | -12.5 ± 0.13 | -11.45 ± 0.047 | -9.827 ± 0.057 | 57.92 ± 0.21 | 49.9 ± 1.1 | 65.7 ± 0.74 | 60.75 ± 0.31 | 53.32 ± 0.14 | 68.22 ± 0.15 | 63.08 ± 0.2 | 55.65 ± 0.051 | 69.47 ± 0.26 | 64.34 ± 0.11 | 56.75 ± 0.12 | 70.41 ± 0.2 | 65.17 ± 0.17 | 57.39 ± 0.097 | 71.91 ± 0.23 | 66.49 ± 0.15 | 58.63 ± 0.12 | 72.85 ± 0.2 | 67.47 ± 0.082 | 59.42 ± 0.24 | 63.68 ± 0.069
GCCCGAGCATGACTGCG | -255 ± 13 | -217 ± 5.5 | -231 ± 7.1 | -98.8 ± 4.5 | -83.7 ± 1.9 | -86.9 ± 2.4 | -16.3 ± 0.36 | -13.6 ± 0.11 | -12.16 ± 0.1 | 65.4 ± 0.24 | 59.02 ± 0.17 | 75.41 ± 0.19 | 68.14 ± 0.36 | 61.59 ± 0.3 | 76.97 ± 0.085 | 70 ± 0.11 | 63.37 ± 0.21 | 77.92 ± 0.1 | 71.104 ± 0.068 | 64.41 ± 0.16 | 78.54 ± 0.1 | 71.926 ± 0.031 | 65.09 ± 0.084 | 79.72 ± 0.12 | 73.02 ± 0.13 | 66.12 ± 0.12 | 80.63 ± 0.26 | 73.82 ± 0.14 | 66.8 ± 0.27 | 
TAGACGCGGCCTCTTTCC | -258 ± 24 | -272 ± 15 | -272 ± 32 | -99.8 ± 8.6 | -103 ± 5.1 | -101 ± 11 | -16.4 ± 0.68 | -14.9 ± 0.32 | -13.4 ± 0.56 | 67.6 |  | 74.76 ± 0.23 | 69 ± 0.71 |  | 76.52 ± 0.15 | 70.8 ± 0.46 |  | 77.7 ± 0.27 | 71.32 ± 0.62 | 66.47 ± 0.089 | 78.58 ± 0.21 | 72.01 ± 0.38 | 67.44 ± 0.059 | 79.83 ± 0.13 | 73.3 ± 0.19 | 68.13 ± 0.13 | 80.63 ± 0.22 | 73.84 ± 0.11 | 68.81 ± 0.13 | 73.91 ± 0.44
CCGCTCAGAGTAGAGA | -187 ± 3.2 | -193 ± 3.2 | -183 ± 8 | -72.8 ± 1.1 | -73.5 ± 1.1 | -68.9 ± 2.6 | -12.5 ± 0.059 | -11.31 ± 0.042 | -9.673 ± 0.048 | 56.777 ± 0.05 | 49.2 ± 0.5 | 65.47 ± 0.19 | 59.67 ± 0.14 | 52.58 ± 0.28 | 67.54 ± 0.15 | 61.84 ± 0.13 | 54.81 ± 0.14 | 68.92 ± 0.084 | 63.04 ± 0.11 | 55.91 ± 0.17 | 69.87 ± 0.13 | 63.88 ± 0.14 | 56.68 ± 0.077 | 71.25 ± 0.081 | 65.05 ± 0.1 | 57.72 ± 0.067 | 72.15 ± 0.098 | 65.94 ± 0.14 | 58.67 ± 0.3 | 62.75 ± 0.41
CAAGCCTCGATTTTGT | -186 ± 6 | -188 ± 4.9 | -167 ± 6.5 | -72.5 ± 2.1 | -71.3 ± 1.6 | -63.1 ± 2.1 | -12.29 ± 0.11 | -10.63 ± 0.052 | -9.148 ± 0.028 |  | 46.56 ± 0.31 | 64.39 ± 0.47 | 56.69 ± 0.17 | 50.11 ± 0.18 | 66.83 ± 0.17 | 58.85 ± 0.28 | 52.41 ± 0.077 | 68.04 ± 0.08 | 60.19 ± 0.34 | 53.632 ± 0.045 | 68.83 ± 0.17 | 60.95 ± 0.27 | 54.55 ± 0.083 | 70.12 ± 0.2 | 62.25 ± 0.24 | 55.802 ± 0.033 | 71.17 ± 0.15 | 63.14 ± 0.43 | 56.6 ± 0.35 | 
CACAGCGACATGTATGG | -218 ± 7.4 | -220 ± 4.1 | -216 ± 10 | -84.1 ± 2.5 | -83.1 ± 1.4 | -80 ± 3.5 | -13.7 ± 0.16 | -12.06 ± 0.059 | -10.12 ± 0.071 | 59.17 ± 0.49 | 51.1 ± 0.65 | 68.17 ± 0.38 | 61.71 ± 0.23 | 54.15 ± 0.059 | 70.03 ± 0.34 | 63.56 ± 0.32 | 56.02 ± 0.1 | 71.11 ± 0.17 | 64.61 ± 0.28 | 56.91 ± 0.12 | 72.07 ± 0.21 | 65.347 ± 0.065 | 57.68 ± 0.091 | 73.27 ± 0.14 | 66.45 ± 0.11 | 58.539 ± 0.051 | 74.18 ± 0.2 | 67.43 ± 0.1 | 59.3 ± 0.12 | 66.351 ± 0.017
GCTGAACTAACCACCA | -201 ± 9.6 | -192 ± 3.9 | -188 ± 7 | -77.7 ± 3.3 | -73 ± 1.3 | -69.9 ± 2.3 | -12.7 ± 0.18 | -10.92 ± 0.045 | -9.252 ± 0.03 | 55.12 ± 0.072 | 47.5 ± 0.78 | 65.29 ± 0.31 | 57.81 ± 0.12 | 50.39 ± 0.32 | 67.03 ± 0.25 | 60.12 ± 0.057 | 52.54 ± 0.26 | 68.36 ± 0.31 | 61.33 ± 0.085 | 53.74 ± 0.18 | 69.23 ± 0.2 | 62.13 ± 0.097 | 54.62 ± 0.096 | 70.53 ± 0.31 | 63.33 ± 0.14 | 55.67 ± 0.093 | 71.61 ± 0.45 | 64.15 ± 0.058 | 56.62 ± 0.25 | 62.4 ± 1.2
ACGGGTCGTTCCGTG | -173 ± 15 | -172 ± 2.8 | -186 ± 12 | -68.9 ± 5.2 | -67 ± 0.95 | -70.7 ± 4.1 | -13.1 ± 0.37 | -11.37 ± 0.043 | -10.5 ± 0.13 |  |  |  | 60.97 ± 0.26 | 56.07 ± 0.25 | 71.45 ± 0.49 | 63.292 ± 0.043 | 58.82 ± 0.085 | 73.32 ± 0.23 | 64.64 ± 0.1 | 60 ± 0.17 | 74.34 ± 0.26 | 65.62 ± 0.087 | 60.71 ± 0.21 | 75.77 ± 0.15 | 67.006 ± 0.054 | 61.81 ± 0.19 | 76.55 ± 0.13 | 68.03 ± 0.2 | 62.74 ± 0.27 | 
